Assay results as given in PMC6303191 (Immunity, 2018).
Several values for one entry are separate records, joined by “and”; a condition that tells them apart may be missing. Equal entries are not always repeated.

Assays:
[1] = molecular target: T1, eOD-GT8 (monomer), synthetic construct eOD-GT8-Avi-3C-His (synthetic construct (engineered HIV-1 …))
[2] = molecular target: T2, Centromere protein B (Homo sapiens (product PRO-390 from …, UniProt P07199)); assay: ELISA; details: both partners purified
T2 construct: also called centromere B

[3] = molecular target: Jo-1 antigen (Bos taurus (assumed), UniProt Q2KI84); assay: ELISA; details: both partners purified
[4] = molecular target: Scl-70 antigen (Bos taurus (assumed), UniProt A0AAA9TV68); assay: ELISA; details: both partners purified
[5] = molecular target: SSB (La) antigen (Bos taurus (assumed), UniProt P10881); assay: ELISA; details: both partners purified
[6] = molecular target: Ubiquitin Protein Ligase E3A (UBE3A) (Homo sapiens, assumed, UniProt Q05086); assay: ELISA; details: both partners purified
[7] = molecular target: eOD-GT8 (24-mer) (synthetic construct (engineered HIV-1 …)); assay: BLI; details: both partners purified
[8] = molecular target: eOD-GT8 (heptamer) (synthetic construct (engineered HIV-1 …)); assay: BLI; details: both partners purified
[9] = molecular target: T1, eOD-GT8 (monomer), synthetic construct …; assay: SPR; details: both partners purified
[10] = molecular target: T3, eOD-GT6, synthetic construct eOD-GT6-Avi-3C-His (synthetic construct (engineered HIV-1 …)); assay: SPR; details: both partners purified
T3 construct: source: produced in house (Duke Human Vaccine Institute and VRC/NIAID)
T3 sequence (heavy, as listed by the source): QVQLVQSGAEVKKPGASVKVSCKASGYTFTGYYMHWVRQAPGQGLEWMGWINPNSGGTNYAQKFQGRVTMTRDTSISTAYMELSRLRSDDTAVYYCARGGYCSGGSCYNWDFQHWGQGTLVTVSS

Chain of Ubiquitin Protein Ligase E3A (UBE3A) (Q05086 whole entry): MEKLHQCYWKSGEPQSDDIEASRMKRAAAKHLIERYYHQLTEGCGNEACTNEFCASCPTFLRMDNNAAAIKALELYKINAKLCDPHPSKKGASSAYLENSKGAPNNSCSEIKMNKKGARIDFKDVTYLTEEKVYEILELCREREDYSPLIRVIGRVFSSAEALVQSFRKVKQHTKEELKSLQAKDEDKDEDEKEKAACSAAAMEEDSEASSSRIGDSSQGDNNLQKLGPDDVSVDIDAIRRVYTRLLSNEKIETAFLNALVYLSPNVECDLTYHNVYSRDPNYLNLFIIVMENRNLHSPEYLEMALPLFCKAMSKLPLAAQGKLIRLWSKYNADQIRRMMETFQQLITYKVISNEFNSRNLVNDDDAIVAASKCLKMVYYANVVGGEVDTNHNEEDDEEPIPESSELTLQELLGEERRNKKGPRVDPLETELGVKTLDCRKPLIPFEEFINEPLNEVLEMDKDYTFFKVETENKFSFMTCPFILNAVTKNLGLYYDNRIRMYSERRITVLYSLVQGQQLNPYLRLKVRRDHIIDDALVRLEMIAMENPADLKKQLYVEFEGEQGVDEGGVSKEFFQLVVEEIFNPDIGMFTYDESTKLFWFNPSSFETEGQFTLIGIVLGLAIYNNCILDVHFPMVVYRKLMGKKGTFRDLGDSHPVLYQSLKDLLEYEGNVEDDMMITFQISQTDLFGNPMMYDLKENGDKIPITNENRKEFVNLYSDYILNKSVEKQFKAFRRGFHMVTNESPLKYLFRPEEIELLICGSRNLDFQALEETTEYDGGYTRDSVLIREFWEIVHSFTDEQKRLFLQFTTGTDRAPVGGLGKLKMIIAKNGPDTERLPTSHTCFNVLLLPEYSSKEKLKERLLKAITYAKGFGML
T2 sequence (P07199 whole entry): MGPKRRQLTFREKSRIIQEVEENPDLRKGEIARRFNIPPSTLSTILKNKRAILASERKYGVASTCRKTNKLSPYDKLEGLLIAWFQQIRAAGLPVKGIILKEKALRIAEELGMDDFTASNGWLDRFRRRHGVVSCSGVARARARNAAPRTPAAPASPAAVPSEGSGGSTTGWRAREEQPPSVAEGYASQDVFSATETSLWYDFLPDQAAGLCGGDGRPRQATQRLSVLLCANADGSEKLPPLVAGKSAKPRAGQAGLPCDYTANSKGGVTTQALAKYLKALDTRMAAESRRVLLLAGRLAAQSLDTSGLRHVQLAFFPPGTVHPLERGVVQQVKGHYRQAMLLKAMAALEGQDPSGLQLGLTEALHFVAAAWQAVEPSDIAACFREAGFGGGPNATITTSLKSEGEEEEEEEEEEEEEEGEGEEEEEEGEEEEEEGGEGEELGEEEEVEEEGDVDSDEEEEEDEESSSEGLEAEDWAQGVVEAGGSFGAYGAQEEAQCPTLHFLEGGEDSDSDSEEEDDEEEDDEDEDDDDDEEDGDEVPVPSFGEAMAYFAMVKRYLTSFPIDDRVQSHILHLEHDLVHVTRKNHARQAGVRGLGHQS
Chain of SSB (La) antigen (P05455 whole entry): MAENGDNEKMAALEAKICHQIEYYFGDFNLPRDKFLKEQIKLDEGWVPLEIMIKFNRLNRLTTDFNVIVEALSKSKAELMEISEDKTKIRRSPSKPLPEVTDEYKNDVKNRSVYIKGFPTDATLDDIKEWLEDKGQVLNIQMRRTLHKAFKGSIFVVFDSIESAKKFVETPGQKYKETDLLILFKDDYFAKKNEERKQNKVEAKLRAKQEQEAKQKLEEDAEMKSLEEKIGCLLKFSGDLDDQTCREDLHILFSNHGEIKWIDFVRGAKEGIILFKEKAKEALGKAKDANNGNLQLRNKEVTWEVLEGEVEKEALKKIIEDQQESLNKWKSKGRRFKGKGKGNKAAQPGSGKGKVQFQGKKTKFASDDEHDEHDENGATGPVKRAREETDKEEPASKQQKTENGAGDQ
Chain of eOD-GT8 (24-mer) (synthetic construct (engineered HIV-1 …)) (heavy, as listed by the source): as the sequence (heavy, as listed by the source) above
Chain of eOD-GT8 (heptamer) (synthetic construct (engineered HIV-1 …)) (heavy, as listed by the source): as above
Chain of Jo-1 antigen (P12081 whole entry): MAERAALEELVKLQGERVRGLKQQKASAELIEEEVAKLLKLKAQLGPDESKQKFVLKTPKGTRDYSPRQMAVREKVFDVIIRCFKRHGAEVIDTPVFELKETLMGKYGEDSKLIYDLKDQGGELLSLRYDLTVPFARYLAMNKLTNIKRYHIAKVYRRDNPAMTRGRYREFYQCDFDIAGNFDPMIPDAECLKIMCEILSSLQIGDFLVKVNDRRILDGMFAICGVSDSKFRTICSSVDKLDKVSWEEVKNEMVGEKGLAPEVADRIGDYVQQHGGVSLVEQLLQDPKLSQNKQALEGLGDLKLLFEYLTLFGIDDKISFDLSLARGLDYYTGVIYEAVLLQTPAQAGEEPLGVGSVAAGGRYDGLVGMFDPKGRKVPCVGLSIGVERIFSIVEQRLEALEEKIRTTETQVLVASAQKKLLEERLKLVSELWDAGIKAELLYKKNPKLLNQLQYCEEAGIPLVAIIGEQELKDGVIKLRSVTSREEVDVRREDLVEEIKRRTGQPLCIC
Chain of Scl-70 antigen (P11387 whole entry): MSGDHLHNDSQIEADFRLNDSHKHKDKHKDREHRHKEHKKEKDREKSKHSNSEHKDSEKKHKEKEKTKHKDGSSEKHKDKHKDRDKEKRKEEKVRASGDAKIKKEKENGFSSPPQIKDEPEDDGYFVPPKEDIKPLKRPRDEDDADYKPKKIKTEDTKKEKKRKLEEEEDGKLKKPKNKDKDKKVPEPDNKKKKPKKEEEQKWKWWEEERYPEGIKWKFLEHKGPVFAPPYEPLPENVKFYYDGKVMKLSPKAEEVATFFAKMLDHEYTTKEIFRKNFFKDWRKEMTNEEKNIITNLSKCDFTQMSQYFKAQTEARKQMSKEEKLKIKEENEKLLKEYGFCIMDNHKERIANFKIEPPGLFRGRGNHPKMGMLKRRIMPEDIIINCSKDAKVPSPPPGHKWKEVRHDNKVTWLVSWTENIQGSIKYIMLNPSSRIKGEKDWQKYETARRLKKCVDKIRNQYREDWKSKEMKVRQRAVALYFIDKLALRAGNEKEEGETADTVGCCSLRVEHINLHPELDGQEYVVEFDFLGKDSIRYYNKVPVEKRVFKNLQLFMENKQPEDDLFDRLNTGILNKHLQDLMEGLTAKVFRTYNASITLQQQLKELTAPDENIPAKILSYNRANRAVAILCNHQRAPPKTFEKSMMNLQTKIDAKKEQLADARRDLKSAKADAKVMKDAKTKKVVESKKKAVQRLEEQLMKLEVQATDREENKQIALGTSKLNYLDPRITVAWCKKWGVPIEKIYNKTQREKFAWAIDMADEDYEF

Binder	binding result [1]	binding result [6]	further results
12A12 V.Rev (antibody, V domains shown) VH: not shown VL: DIQMTQSPSSLSASVGDRVTITCQASQDISNYLNWYQQKPGKAPKLLIYDASNLETGVPSRFSGSGSGTDFTFTISSLQPEDIATYYCAVLEFFGPGTKVEIK	binds	–	–
VRC01 VJ.Rev (antibody, V domains shown) VH: not shown VL: EIVLTQSPATLSLSPGERATLSCRASQSVSSYLAWYQQKPGQAPRLLIYDASNRATGIPARFSGSGSGTDFTLTISSLEPEDFAVYYCQQYEFFGQGTKLEIK	binds	–	–
VRC23 V.Rev (antibody, V domains shown) VH: not shown VL: EIVMTQSPATLSVSPGERATLSCRASQSVSSNLAWYQQKPGQAPRLLIYGASTRATGIPARFSGSGSGTEFTLTISSLQSEDFAVYYCQQYETFGQGTKVEIK	–	–	binding result [2]: binds; binding result [3]: binds; binding result [4]: binds; binding result [5]: binds
VRC20 V.Rev (antibody, V domains shown) VH: not shown VL: QSALTQPASVSGSPGQSITISCTGTSSDVGGYNYVSWYQQHPGKAPKLMIYEVSNRPSGVSNRFSGSKSGNTASLTISGLQAEDEADYYCNAFEFFGGGTKLTVL	–	–	binding result [2]: binds
VRC01 L34M (antibody, V domains shown) VH: QVQLVQSGGQMKKPGESMRISCRASGYEFIDCTMNWIRLAPGKRPEWMGWLKPRGGAVNYARPLQGRVTMTRDVYSDTAFLELRSLTVDDTAVYFCTRGKNCDYNWDFEHWGRGTPVIVSS VL: EIVLTQSPGTLSLSPGETAIISCRTSQYGSLAWYQQRPGQAPRLVIYSGSTRAAGIPDRFSGSRWGPDYNLTISNLESGDFGVYYCQQYEFFGQGTKVQVD	–	binds	–
DH651.1 with 33TL34 reverted to the germline-encoded 33YM34 (antibody, V domains shown) VH: QVQLVQSGGQMKKPGESMRISCRTSGYEFIECYMNWIRLAPGRRPEWMGWLKPRGGAVNYARSFQGRVTMTRDVYSDTAFLELRSLTPDDTAVYFCTRGKDCNYNWDFEHWGRGTPVTVSS VL: EIVLTQSPHPALLSPGETAIISCRTSQYGSLAWYQQRPGQAPRLVIYSGSTRAAGIPDRFSGSRWGPDYNLTISNLESGDLGVYYCQQYEFFGQGTKVQVD	–	no binding (tested: 100 μg/ml)	–
DH651.2 with 33TL34 reverted to the germline-encoded 33YM34 (antibody, V domains shown) VH: QVQLVQSGAQMKKPGESMRISCRASGYEFIDCYMNWIRLAPGRRPEWMGWLKPRGGAVNYARPLQGRVTMTRDVYSDTAFLELRSLTVDDTAVYFCTRGKTCDYNWDFAHWGQGTPVTVSS VL: EIVLTQSPGTLSLSPGETAIISCRTSQYGSLAWYQQRPGQAPRLVIYSGSTRAAGIPDRFSGSRWGPEYNLTISNLESGDFGVYYCQQYEFFGQGTKVQVD	–	no binding (tested: 100 μg/ml)	–
VRC02 with 33TL34 reverted to the germline-encoded 33YM34 (antibody, V domains shown) VH: QVQLVQSGGQMKKPGESMRISCQASGYEFIDCYMNWVRLAPGRRPEWMGWLKPRGGAVNYARPLQGRVTMTRDVYSDTAFLELRSLTADDTAVYYCTRGKNCDYNWDFEHWGRGTPVTVSS VL: EIVLTQSPGTLSLSPGETAIISCRTSQYGSLAWYQQRPGQAPRLVIYSGSTRAAGIPDRFSGSRWGPDYNLTIRNLESGDFGLYYCQQYEFFGQGTKVQVD	–	no binding (tested: 100 μg/ml)	–
VRC01 T33Y (antibody, V domains shown) VH: QVQLVQSGGQMKKPGESMRISCRASGYEFIDCYLNWIRLAPGKRPEWMGWLKPRGGAVNYARPLQGRVTMTRDVYSDTAFLELRSLTVDDTAVYFCTRGKNCDYNWDFEHWGRGTPVIVSS VL: EIVLTQSPGTLSLSPGETAIISCRTSQYGSLAWYQQRPGQAPRLVIYSGSTRAAGIPDRFSGSRWGPDYNLTISNLESGDFGVYYCQQYEFFGQGTKVQVD	–	no binding (tested: 100 μg/ml)	–
DH651.4 with 33TL34 reverted to the germline-encoded 33YM34 (antibody, V domains shown) VH: QVQLVQSGGQMKKPGESMRISCRASGYEFIDCYMNWIRLAPGRRPEWMGWLKPRGGAVSYARPLQGRVTMTRDVYSDTAFLELRSLTVDDTAVYFCTRGKTCDYNWDFAHWGQGTPVTVSS VL: EIVLTQSPGTLSLSPGETAIISCRTSQYGSLAWYQQRPGQAPRLVIYSGSTRAAGIPDRFSGSRWGPEYNLTISNLESGDFGVYYCQQYEFFGQGTKVQVD	–	no binding (tested: 100 μg/ml)	–
VRC01 with 33TL34 reverted to the germline-encoded 33YM34 (antibody, V domains shown) VH: QVQLVQSGGQMKKPGESMRISCRASGYEFIDCYMNWIRLAPGKRPEWMGWLKPRGGAVNYARPLQGRVTMTRDVYSDTAFLELRSLTVDDTAVYFCTRGKNCDYNWDFEHWGRGTPVIVSS VL: EIVLTQSPGTLSLSPGETAIISCRTSQYGSLAWYQQRPGQAPRLVIYSGSTRAAGIPDRFSGSRWGPDYNLTISNLESGDFGVYYCQQYEFFGQGTKVQVD	–	no binding (tested: 100 μg/ml)	–
VRC01 V.Rev (antibody, V domains shown) VH: not shown VL: EIVLTQSPGTLSLSPGERATLSCRASQSVSSSYLAWYQQKPGQAPRLLIYGASSRATGIPDRFSGSGSGTDFTLTISRLEPEDFAVYYCQQYEFFGQGTKVQVD	binds	–	–
VRC18b V.Rev (antibody, V domains shown) VH: not shown VL: EIVLTQSPGTLSLSPGERATLSCRASQSVSSSYLAWYQQKPGQAPRLLIYGASSRATGIPDRFSGSGSGTDFTLTISRLEPEDFAVYYCQILEFFGRGTRVEMN	binds	–	–
VRC01 UCA (antibody, V domains shown, also called VRC01 lineage unmutated common ancestor; VRC01 UCA IgG) VH: not shown VL: EIVLTQSPGTLSLSPGERATLSCRASQSVSSSYLAWYQQKPGQAPRLLIYGASSRATGIPDRFSGSGSGTDFTLTISRLEPEDFAVYYCQQYEFFGQGTKLEIK	–	–	binding result [7]: binds; binding result [8]: binds; Kd [9]: < 0.1 nM and 0.25 nM; Kd [10]: 2400 nM and 2500 nM; koff [10]: 0.068 s⁻¹; kon [10]: 3000 M⁻¹ s⁻¹
VRC03 V.Rev (antibody, V domains shown) VH: not shown VL: EIVLTQSPGTLSLSPGERATLSCRASQSVSSSYLAWYQQKPGQAPRLLIYGASSRATGIPDRFSGSGSGTDFTLTISRLEPEDFAVYYCQQFEFFGLGSELEVH	binds	–	–
